Experiments:
[1] = biological target: T1, biotinylated murine wildtype gp130 (D1-D6) with C-terminal biotin acceptor peptide and hexa-histidine tag (murine, UniProt Q00560 23-617, biotin on the C-terminal biotin acceptor peptide (in vitro, BirA)); experiment: SPR
T1 chain: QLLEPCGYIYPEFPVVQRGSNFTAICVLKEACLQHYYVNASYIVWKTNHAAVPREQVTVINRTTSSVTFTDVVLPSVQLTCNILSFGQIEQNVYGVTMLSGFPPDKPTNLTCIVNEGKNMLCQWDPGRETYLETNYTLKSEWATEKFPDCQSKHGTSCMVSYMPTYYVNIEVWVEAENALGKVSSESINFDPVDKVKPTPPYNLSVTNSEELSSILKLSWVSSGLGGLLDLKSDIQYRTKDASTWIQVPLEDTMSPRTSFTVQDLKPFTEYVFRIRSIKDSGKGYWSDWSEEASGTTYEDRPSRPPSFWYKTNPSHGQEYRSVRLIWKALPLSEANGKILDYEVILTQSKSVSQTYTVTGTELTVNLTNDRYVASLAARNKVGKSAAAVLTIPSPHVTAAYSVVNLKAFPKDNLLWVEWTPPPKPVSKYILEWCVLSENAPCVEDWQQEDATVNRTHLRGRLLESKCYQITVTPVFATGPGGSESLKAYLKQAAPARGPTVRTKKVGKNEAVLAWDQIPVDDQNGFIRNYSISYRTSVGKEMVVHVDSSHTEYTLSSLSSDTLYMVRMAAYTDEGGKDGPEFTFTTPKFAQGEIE

[2] = biological target: T2, biotinylated murine gp130_(P496L) (D1-D6) with C-terminal biotin acceptor peptide and hexa-histidine tag (murine, UniProt Q00560 23-617, P496L, biotin on the C-terminal biotin acceptor peptide (in vitro, BirA)); experiment: SPR
[3] = biological target: T1, biotinylated murine wildtype gp130 …; experiment: SPR; equilibrium fit
[4] = biological target: T2, biotinylated murine gp130_(P496L) …; experiment: SPR; equilibrium fit
[5] = biological target: T1, biotinylated murine wildtype gp130 …; experiment: SPR; kinetic fit
[6] = biological target: T2, biotinylated murine gp130_(P496L) …; experiment: SPR; kinetic fit

B1: HypIL-11 (human IL-11 fused by a short linker to domains D2 and D3 of IL-11Rα, single chain) (other)
chain: PPARPVVSCQAADYENFSCTWSPSQISGLPTRYLTSYRKKTVLGADSQRRSPSTGPWPCPQDPLGAARCVVHGAEFWSQYRINVTEVNPLGASTRLLDVSLQSILRPDPPQGLRVESVPGYPRRLRASWTYPASWPCQPHFLLKFRLQYRPAQHPAWSTVEPAGLEEVITDAVAGLPHAVRVSARDFLDAGTWSTWSPEAWGTPSTPGPPPGPPRVSPDPRAELDSTVLLTRSLLADTRQLAAQLRDKFPADGDHNLDSLPTLAMSAGALGALQLPGVLTRLRADLLSYLRHVQWLRRAGGSSLKTLEPELGTLQARLDRLLRRLQLLMSRLALPQPPPDPPAPPLAPPSSAWGGIRAAHAILGGLHLTLDWAVRGLLLLKTRL
B1 showed a koff [1] of 0.0023 s⁻¹, a koff [2] of 0.0027 s⁻¹ and a Kd [3] of 8.5 nM. The Kd [4] was 11 nM, the Kd [5] was 1.45 nM and the Kd [6] was 1.8 nM.
